Tests used:
Crosstide GRPRTSSFAEG = target: T1, Crosstide GRPRTSSFAEG
T1 chain: GRPRTSSFAEG

[1] = target: GSK3-β partially purified from rabbit skeletal muscle, A0A5F9
[2] = target: GSK3-α partially purified from rabbit skeletal muscle

Sequence of GSK3-β partially purified from rabbit skeletal muscle, A0A5F9 (A0A5F9 entry or part of it): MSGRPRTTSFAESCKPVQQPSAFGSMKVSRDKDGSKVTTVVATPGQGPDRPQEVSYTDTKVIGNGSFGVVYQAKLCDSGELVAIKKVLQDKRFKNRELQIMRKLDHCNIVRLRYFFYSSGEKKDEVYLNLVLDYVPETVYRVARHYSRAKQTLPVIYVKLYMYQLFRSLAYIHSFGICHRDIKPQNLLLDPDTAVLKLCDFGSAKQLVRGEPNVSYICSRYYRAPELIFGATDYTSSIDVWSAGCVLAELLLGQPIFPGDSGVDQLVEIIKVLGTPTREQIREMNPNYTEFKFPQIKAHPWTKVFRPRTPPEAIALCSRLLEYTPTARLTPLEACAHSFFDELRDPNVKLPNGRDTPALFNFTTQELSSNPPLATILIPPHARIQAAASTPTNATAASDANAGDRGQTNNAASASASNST

B1: RAC-PK immunoprecipitated or chromatographed from insulin-stimulated L6 myotubes (protein)
chain: MNDVAIVKEGWLHKRGEYIKTWRPRYFLLKNDGTFIGYKERPQDVEQRESPLNNFSVAQCQLMKTERPRPNTFIIRCLQWTTVIERTFHVETPEEREEWTTAIQTVADGLKRQEEETMDFRSGSPSDNSGAEEMEVALAKPKHRVTMNEFEYLKLLGKGTFGKVILVKEKATGRYYAMKILKKEVIVAKDEVAHTLTENRVLQNSRHPFLTALKYSFQTHDRLCFVMEYANGGELFFHLSRERVFSEDRARFYGAEIVSALDYLHSEKNVVYRDLKLENLMLDKDGHIKITDFGLCKEGIKDGATMKTFCGTPEYLAPEVLEDNDYGRAVDWWGLGVVMYEMMCGRLPFYNQDHEKLFELILMEEIRFPRTLGPEAKSLLSGLLKKDPTQRLGGGSEDAKEIMQHRFFANIVWQDVYEKKLSPPFKPQVTSETDTRYFDEEFTAQMITITPPDQDDSMECVDSERRPHFPQFSYSASGTA
Crosstide GRPRTSSFAEG
  site of phosphorylation in Crosstide: Akt/RAC phosphorylated the Ser in the Crosstide equivalent to Ser21 in GSK3-α and Ser9 in GSK3-β (data not shown)
[1]
  GSK3 activity after incubation with MgATP and RAC-PK: RAC-PK from insulin-stimulated L6 myotubes (but not from unstimulated or wortmannin-treated cells) inactivated GSK3-α and GSK3-β in vitro
  site of in vitro phosphorylation (tryptic peptide, solid-phase sequencing): the third residue of these, corresponding to Ser9 (GSK3-β) or Ser21 (GSK3-α), was the site of phosphorylation in each phosphopeptide
[2]
  GSK3 activity after incubation with MgATP and RAC-PK: RAC-PK from insulin-stimulated L6 myotubes (but not from unstimulated or wortmannin-treated cells) inactivated GSK3-α and GSK3-β in vitro
